Assays:
Ycs4 = biological target: T1, Ycs4 (S. cerevisiae, UniProt Q06156 1-1176); test: cryo-EM structure; condensin pentamer with relaxed circular DNA, ADP and BeF3; VPP and non-VPP datasets merged; maps at 8.75 and 8.95 Å; settings: both partners purified
T1 construct: Ycs4, HAWK subunit of budding yeast (S. cerevisiae) condensin, wild type
T1 sequence: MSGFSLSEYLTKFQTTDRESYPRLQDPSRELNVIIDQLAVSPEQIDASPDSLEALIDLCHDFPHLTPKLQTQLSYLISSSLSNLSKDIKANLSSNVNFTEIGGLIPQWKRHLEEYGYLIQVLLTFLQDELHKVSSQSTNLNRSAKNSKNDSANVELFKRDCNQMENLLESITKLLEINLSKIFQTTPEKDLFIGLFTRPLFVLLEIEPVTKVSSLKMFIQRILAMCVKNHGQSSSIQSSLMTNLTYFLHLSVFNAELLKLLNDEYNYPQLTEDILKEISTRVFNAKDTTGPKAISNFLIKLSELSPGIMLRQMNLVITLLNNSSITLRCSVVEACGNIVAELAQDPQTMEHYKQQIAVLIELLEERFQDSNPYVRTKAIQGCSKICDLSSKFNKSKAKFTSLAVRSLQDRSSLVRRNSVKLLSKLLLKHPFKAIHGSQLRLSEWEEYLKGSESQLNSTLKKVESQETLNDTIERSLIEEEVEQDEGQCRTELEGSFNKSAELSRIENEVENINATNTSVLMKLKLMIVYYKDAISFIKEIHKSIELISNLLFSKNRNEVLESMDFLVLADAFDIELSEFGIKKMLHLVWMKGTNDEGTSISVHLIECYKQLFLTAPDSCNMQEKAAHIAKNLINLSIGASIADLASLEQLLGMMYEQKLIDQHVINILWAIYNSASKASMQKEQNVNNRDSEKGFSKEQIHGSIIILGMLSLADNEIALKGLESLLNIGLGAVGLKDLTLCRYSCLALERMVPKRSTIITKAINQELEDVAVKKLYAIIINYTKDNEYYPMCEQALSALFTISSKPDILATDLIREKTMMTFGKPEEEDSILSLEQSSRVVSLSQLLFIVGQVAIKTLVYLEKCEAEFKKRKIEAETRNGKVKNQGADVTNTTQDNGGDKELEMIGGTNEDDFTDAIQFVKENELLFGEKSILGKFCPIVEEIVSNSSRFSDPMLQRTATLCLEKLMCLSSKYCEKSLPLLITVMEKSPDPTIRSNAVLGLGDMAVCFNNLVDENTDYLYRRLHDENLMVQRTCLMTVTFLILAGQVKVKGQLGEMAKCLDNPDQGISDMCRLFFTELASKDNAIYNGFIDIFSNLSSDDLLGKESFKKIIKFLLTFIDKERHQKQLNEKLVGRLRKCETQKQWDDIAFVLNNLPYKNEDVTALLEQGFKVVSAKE

Smc2 = biological target: T2, Smc2 (S. cerevisiae, UniProt P38989 1-1170); test: as above; settings: both partners purified
T2 construct: Smc2, SMC subunit of budding yeast (S. cerevisiae) condensin, wild type; Expressed from pGAL10-SMC2 together with the other subunits; Only the head domain and proximal coiled coil are resolved in the maps
T2 sequence: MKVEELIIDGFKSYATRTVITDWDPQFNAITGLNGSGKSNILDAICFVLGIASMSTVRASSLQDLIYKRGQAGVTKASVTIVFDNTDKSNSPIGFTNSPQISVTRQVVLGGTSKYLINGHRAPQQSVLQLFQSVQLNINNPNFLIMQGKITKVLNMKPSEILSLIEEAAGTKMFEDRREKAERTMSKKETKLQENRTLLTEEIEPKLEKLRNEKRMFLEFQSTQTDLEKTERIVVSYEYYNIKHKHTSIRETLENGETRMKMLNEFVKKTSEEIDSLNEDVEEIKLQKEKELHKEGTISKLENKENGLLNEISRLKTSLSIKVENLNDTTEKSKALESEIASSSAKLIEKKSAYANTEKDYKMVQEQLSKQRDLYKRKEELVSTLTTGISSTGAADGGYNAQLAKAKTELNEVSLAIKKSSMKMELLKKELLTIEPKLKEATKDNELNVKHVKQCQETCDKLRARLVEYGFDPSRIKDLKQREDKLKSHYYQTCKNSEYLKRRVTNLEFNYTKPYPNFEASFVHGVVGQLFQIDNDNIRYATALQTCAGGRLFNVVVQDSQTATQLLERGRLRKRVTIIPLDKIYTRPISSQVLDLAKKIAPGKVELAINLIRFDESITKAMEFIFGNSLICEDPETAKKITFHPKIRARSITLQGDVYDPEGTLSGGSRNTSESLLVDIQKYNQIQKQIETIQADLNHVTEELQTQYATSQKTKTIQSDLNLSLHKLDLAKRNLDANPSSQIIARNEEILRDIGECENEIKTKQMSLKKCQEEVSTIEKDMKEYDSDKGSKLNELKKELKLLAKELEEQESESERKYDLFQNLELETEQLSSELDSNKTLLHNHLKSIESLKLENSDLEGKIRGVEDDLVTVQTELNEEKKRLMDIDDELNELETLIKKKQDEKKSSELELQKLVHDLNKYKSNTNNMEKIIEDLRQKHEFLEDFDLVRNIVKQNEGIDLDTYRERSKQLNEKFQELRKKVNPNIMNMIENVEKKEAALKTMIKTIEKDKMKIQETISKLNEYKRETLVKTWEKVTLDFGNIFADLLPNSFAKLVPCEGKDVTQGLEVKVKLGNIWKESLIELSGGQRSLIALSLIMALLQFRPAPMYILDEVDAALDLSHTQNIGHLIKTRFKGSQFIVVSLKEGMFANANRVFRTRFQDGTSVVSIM

- binding result (Ycs4): binds
- binding result (Smc2): binds
B1: Brn1 (natural protein, S. cerevisiae)
chain: MTTQLRYENNDDDERVEYNLFTNRSTMMANFEEWIKMATDNKINSRNSWNFALIDYFYDLDVLKDGENNINFQKASATLDGCIKIYSSRVDSVTTETGKLLSGLAQRKTNGASNGDDSNGGNGEGLGGDSDEANIEIDPLTGMPISNDPDVNNTRRRVYNRVLETTLVEFETIKMKELDQELIIDPLFKKALVDFDEGGAKSLLLNTLNIDNTARVIFDASIKDTQNVGQGKLQRKEEELIERDSLVDDENEPSQSLISTRNDSTVNDSVISAPSMEDEILSLGMDFIKFDQIAVCEISGSIEQLRNVVEDINQAKDFIENVNNRFDNFLTEEELQAAVPDNAEDDSDGFDMGMQQELCYPDENHDNTSHDEQDDDNVNSTTGSIFEKDLMAYFDENLNRNWRGREHWKVRNFKKANLVNKESDLLEETRTTIGDTTDKNTTDDKSMDTKKKHKQKKVLEIDFFKTDDSFEDKVFASKGRTKIDMPIKNRKNDTHYLLPDDFHFSTDRITRLFIKPGQKMSLFSHRKHTRGDVSSGLFEKSTVSANHSNNDIPTIADEHFWADNYERKEQEEKEKEQSKEVGDVVGGALDNPFEDDMDGVDFNQAFEGTDDNEEASVKLDLQDDEDHKFPIRENKVTYSRVSKKVDVRRLKKNVWRSINNLIQEHDSRKNREQSSNDSETHTEDESTKELKFSDIIQGISKMYSDDTLKDISTSFCFICLLHLANEHGLQITHTENYNDLIVNYEDLATTQAAS
notes: Brn1, kleisin subunit of budding yeast (S. cerevisiae) condensin, wild type; also called kleisin Brn1; BRN1-HA3-His12
